# B1: ydgJ gene: recombinant scyllo-inositol dehydrogenase, ydgJ gene product of Escherichia coli K12 ATCC10798, SEQ ID NO: 2 (protein, listed as Escherichia coli)
# chain: MSDNIRVGLIGYGYASKTFHAPLIAGTPGQELAVISSSDETKVKADWPTVTVVSEPKHLFNDPNIDLIVIPTPNDTHFPLAKAALEAGKHVVVDKPFTVTLSQARELDALAKSLGRVLSVFHNRRWDSDFLTLKGLLAEGVLGEVAYFESHFDRFRPQVRDRWREQGGPGSGIWYDLAPHLLDQAITLFGLPVSMTVDLAQLRPGAQSTDYFHAILSYPQRRVILHGTMLAAAESARYIVHGSRGSYVKYGLDPQEERLKNGERLPQEDWGYDMRDGVLTRVEGEERVEETLLTVPGNYPAYYAAIRDALNGDGENPVPASQAIQVMELIELGIESAKHRATLCLA
# B2: C58 Atu4375 gene: recombinant scyllo-inositol dehydrogenase, Atu4375 gene product of Agrobacterium tumefaciens C58 ATCC33970, SEQ ID NO: 4 (protein)
# chain: MSSATKKFDSRRIRLGMVGGGQGAFIGAVHRIAARLDDRYELVAGALSSDPARAAASATLLGIAPERSYASFEDMAATEAGREDGIEAVAIVTPNHLHFAPSKAFLEAGIHVICDKPVTATLEEAKALAGIVRASDSLFVLTHNYTGYAMLRQMREMIAEGAIGKLRHVQAEYAQDWLTEAVEKTGAKGAEWRTDPSRSGAGGAIGDIGTHAFNAAAFVTGEIPSSLYADLTSFVPGRQLDDSANILLRYDSGAKGMLWASQIAVGNENALSLRVYGDKGGLEWHHRVPDELWFTPYGEPKRLITRNGAGAGAAANRVSRVPSGHPEGYLEGFATIYREAADAIIAKREGETAAGEVIYPGMEDGLAGLAFIDAAVRSSQTSTWVGIDI
# modifications: Agrobacterium tumefacience
# B3: BG14057 gene: recombinant scyllo-inositol dehydrogenase, BG14057 gene product of Bacillus subtilis 168 ATCC23857, SEQ ID NO: 8 (protein, listed as Bacillus subtilis)
# chain: MITLLKGRRKVDTIKVGILGYGLSGSVFHGPLLDVLDEYQISKIMTSRTEEVKRDFPDAEVVHELEEITNDPAIELVIVTTPSGLHYEHTMACIQAGKHVVMEKPMTATAEEGETLKRAADEKGVLLSVYHNRRWDNDFLTIKKLISEGSLEDINTYQVSYNRYRPEVQARWREKEGTATGTLYDLGSHIIDQTLHLFGMPKAVTANVMAQRENAETVDYFHLTLDYGKLQAILYGGSIVPANGPRYQIHGKDSSFIKYGIDGQEDALRAGRKPEDDSWGADVPEFYGKLTTIRGSDKKTETIPSVNGSYLTYYRKIAESIREGAALPVTAEEGINVIRIIEAAMESSKEKRTIMLEH
# B4: C58 Atu3234 gene: recombinant scyllo-inositol dehydrogenase, Atu3234 gene product of Agrobacterium tumefaciens C58 ATCC33970, SEQ ID NO: 6 (protein)
# chain: MAIEGKTTDVANKRIRLGMVGGGSGAFIGGVHRMAARLDNRFDLVAGALSSTPEKSLASGRELGLDSERCYGSFEEMAEKEALREDGIEAVAIVTPNHVHYPAAKAFLERGIHVICDKPLTSNLEDAKKLKDVADKADALFILTHNYTGYPMVRHARELVEAGALGNIRLVQMEYPQDWLTEAVEQTGAKQAVWRTDPAQSGVGGSTGDIGTHAYNLGCFISGLEADELAADVHTFVEGRRLDDNAHVMMRFKPKGGKQPARGMLWCSQVAVGHENGLKIRLYGDKAGLEWTQADPNYLWFTKLGEPKQLITRGGAGAGAAAARVTRIPSGHPEGYLEAFATIYTEAAHAIEARRTGSALDKAVIYPTVDDGVKGVAFVTACIESGKKNGGWVKL
# modifications: Agrobacterium tumefacience
# Assay: Optimum pH of scyllo-inositol dehydrogenase
# Type: biochemical
# Settings: 200 mM phosphate buffer (pH 5.0 to 9.0); 90% or more of the maximum activity
# Method: The optimum pH can be confirmed by: mixing 5 μl of a reaction solution (200 mM […] of pH 5.0 to 9.0 containing 2% of NADPH, and 1% of scyllo-inosose) and 5 μl of an enzyme solution; allowing the mixture to react at 36° C. for 30 minutes; adding 500 μl of water immediately after the completion of the reaction; determining the absorbance at 340 nm; and determining a decrease in the absorbance at 340 nm with respect to a blank value of a test solution containing water instead of the enzyme solution. The term “optimum pH” means a pH at which the enzyme has 90% or more of the maximum activity. The enzyme of the present invention can be divided depending on, for example, a range of the optimum pH into groups each having: an optimum pH in an acidic region (optimum pH is pH of 5.5 to 6.5); an optimum pH in a neutral region (optimum pH is pH of 6.5 to 7.5 or 6.5 to 8.5); and an optimum pH in an alkaline region (optimum pH is pH of 7.0 to 8.5 or 7.5 to 9.0).
# The optimum pH of the enzymes of the present invention was determined by: mixing 5 μl of a reaction solution (200 mM phosphate buffer (pH 5.0 to 9.0), 2% of NADPH, and 1% of scyllo-inosose) with 5 μl of an enzyme solution; and allowing the mixture to react at 36° C. for 30 min. After the reaction, 500 μl of water was immediately added thereto, and the absorbance at 340 nm was measured. From the blank value of a test solution prepared by using water instead of the enzyme solution, the decrease in the absorbance at 340 nm was measured. The enzyme solution was diluted as required.
row,Molecule,Optimum pH
1,B1,pH 7.5-9.0
2,B2,pH 6.5-8.5
3,B3,pH 7.0-8.5
4,B4,pH 7.0-8.5

# Assay: Effects of heavy metal on scyllo-inositol dehydrogenase
# Type: biochemical
# Settings: 2 mM heavy metal in reaction solution; no addition group = 100%
# Method: Effects by the heavy metals can be confirmed by: mixing 5 μl of a reaction solution (200 mM Tris buffer of pH 8.0 containing 2% of NADPH, 1% of scyllo-inosose, and 2 mM metal salt) and 5 μl of an enzyme solution; allowing the mixture to react at 36° C. for 30 minutes; adding 500 μl of water immediately after the completion of the reaction; determining the absorbance at 340 nm; and determining a decrease in the absorbance at 340 nm with respect to a blank value of a test solution containing water instead of the enzyme solution. The term “activated” means the case where the enzymatic activity of a fraction added with 1 mM of a heavy metal is 105% or more, preferably 120% or more, with respect to the enzymatic activity of a fraction added with no heavy metal as 100%. On the other hand, the term “inhibited” means the case where the enzymatic activity of the fraction added with 1 mM of a heavy metal is 95% or less, preferably 70% or less, with respect to the enzymatic activity of the fraction added with no heavy metal as 100%.
# The effects of heavy metal on the enzymes of the present invention were determined by: mixing 5 μl of a reaction solution (200 mM Tris buffer (pH 8.0), 2% of NADPH, 1% of scyllo-inosose, and 2 mM of a heavy metal) with 5 μl of an enzyme solution; and allowing the mixture to react at 36° C. for 30 min. After the reaction, 500 μl of water was immediately added thereto, and the absorbance at 340 nm was measured. From the blank value of a test solution prepared by using water instead of the enzyme solution, the decrease in the absorbance at 340 nm was measured. The enzyme solution was diluted as required. CaCl2, CoCl2, ZnSO4, MgSO4, SnCl2, NiCl2, and MnSO4 were used as metallic salts. The activity of the no addition group was defined as 100%, and the relative activities were compared. […] Most of the enzymes were inhibited in the presence of Zn^2+ ion, in contrast, the enzyme derived from Bacillus subtilis 168 was activated in the presence of Zn^2+ ion.
Molecule,Heavy metal effects: activation,Heavy metal effects: strong inhibition
B1,Co,"Sn, Zn"
B2,"Co, Mn","Sn, Zn"
B3,"Co, Mn, Zn",Sn
B4,"Co, Mn, Ca","Sn, Zn"

# Same assay, conditions: 2 mM heavy metal in reaction solution; no addition group = 100%; listed as enzyme derived from Bacillus subtilis 168
row,Molecule,Heavy metal effects: activation
1,B3,Zn^2+ ion

# Assay: Enzyme reaction product of scyllo-inosose reduction measured by HPLC
# Type: biochemical
# Settings: 10 mg scyllo-inosose, 40 mg NADPH, 10 U enzyme, 36° C., 4 hours; myo-inositol not detected
# Method: Meanwhile, the enzyme reaction product was measured as follows: 10 mg of scyllo-inosose, 40 mg of NADPH, and 10 U of the enzyme were allowed to react in 1.0 ml of 100 mM Tris buffer (pH 8.0) at 36° C. for 4 hours, and a heat treatment was performed at 80° C. for 10 min, followed by cooling. Then, 100 μl of a strong base cation exchange resin, 100 μl of a strong acid anion exchange resin, and 10 mg of activated carbon were added, and the mixture was stirred and centrifuged. Then, the supernatant was diluted 2-fold, and measurement was performed by HPLC (Shodex Asahipak NH2P-50 4E Φ 4.6×250 mm: Shodex) using an RI detector under the condition of a column temperature of 40° C. and a mobile phase flow rate of 1.5 ml (80% acetonitrile). […] Meanwhile, the sequence of the ydgJ gene is shown in SEQ ID NO: 1, and the amino acid sequence corresponding thereto is shown in SEQ ID NO: 2.
# Meanwhile, enzyme reaction product was measured as follows: 10 mg of scyllo-inosose, 40 mg of NADPH, and 10 U of the enzyme were allowed to react in 1.0 ml of 100 mM Tris buffer (pH 8.0) at 36° C. for 4 hours, and a heat treatment was performed at 80° C. for 10 min, followed by cooling. Then, 100 μl of a strong base cation exchange resin, 100 μl of a strong acid anion exchange resin, and 10 mg of activated carbon were added, and the mixture was stirred and centrifuged. Then, the supernatant was diluted 2-fold, and measurement was performed by HPLC (Shodex Asahipak NH2P-50 4E Φ 4.6×250 mm: Shodex) using an RI detector under conditions of a column temperature of 40° C. and a mobile phase flow rate of 1.5 ml (80% acetonitrile).
row,Molecule,share of scyllo-inositol in the product of scyllo-inosose reduction
1,B1,100%
2,B2,100%
3,B3,100%
4,B4,100%

# Same assay, conditions: SIS: scyllo-inosose, SI: scyllo-inositol
row,Molecule,Reduction reaction product
1,B1,Only SIS → SI
2,B2,Only SIS → SI
3,B3,Only SIS → SI
4,B4,Only SIS → SI

# Assay: Km values of scyllo-inositol dehydrogenase for scyllo-inosose (reciprocal plot)
# Type: biochemical
# Settings: NADPH, pH 8.0, 36° C.
# Method: The determination is carried out such that the Km value is calculated after reciprocal plot according to the general method.
# After the reaction, […] of water was immediately added thereto, and the absorbance at 340 nm was measured. From the blank value of a test solution prepared by using water instead of the enzyme solution, the decrease in the absorbance at 340 nm was measured. The enzyme solution was diluted as required. The Km values were calculated by the reciprocal plot.
row,Molecule,Km
1,B1,3.9 mM
2,B2,9.2 mM
3,B3,3.5 mM
4,B4,2.6 mM

# Assay: Substrate specificity of scyllo-inositol dehydrogenase (relative activity of oxidation, absorbance at 545 nm)
# Type: biochemical
# Settings: relative to reactivity to scyllo-inositol, NADP^+, pH 8.0, 25° C.
# Method: Examples of an inositol isomer include scyllo-inositol (SI), myo-inositol (MI), D-chiro-inositol (DCI), L-chiro-inositol (LCI), epi-inositol (EI), muco-inositol (MuI), allo-inositol (AI), and neo-inositol (NI).
# The inositol isomers include scyllo-inositol (SI), myo-inositol (MI), D-chiro-inositol (DCI), L-chiro-inositol (LCI), epi-inositol (EI), muco-inositol (MuI), allo-inositol (AI), and neo-inositol (NI).
# The reaction rate was calculated from the absorbance increments at the respective times.
Molecule,Substrate specific Relative activity (20 to 70%),Substrate specific Relative activity (70% or more),Substrate specific Relative activity (less than 20%)
B1,"LCI, EI, MuI","SI, MI, DCI","AI, NI"
B2,"LCI, MuI","SI, MI, DCI, EI","AI, NI"
B3,"DCI, EI, AI, NI","SI, MI","LCI, MuI"
B4,MuI,"SI, MI, DCI, EI, LCI","AI, NI"

# Source: patent US8409833B2 (Hokko Chemical Industry Co., Ltd., priority 2003, dated 2013)
